For 1 protein, Km results are on record in publication PMC4376941, “The Gene YALI0E20207g from Yarrowia lipolytica Encodes an N-Acetylglucosamine Kinase Implicated in the Regulated Expression of the Genes from the N-Acetylglucosamine Assimilatory Pathway” (PLoS ONE, 2015).

Substrate in the data set: Nc1ncnc2c1ncn2[C@@H]1O[C@H](COP(=O)(O)OP(=O)(O)OP(=O)(O)O)[C@@H](O)[C@H]1O
Briefly: purified protein. In kind it is biochemical, Yarrowia lipolytica. Conditions: 4 mM NAGA, 0.1 M Tris-HCl pH 7.5, 30 °C, mean of two preparations.

B1: YlNag5 (YALI0E20207p), N-acetylglucosamine (NAGA) kinase (Yarrowia lipolytica CLIB122) (protein)
chain: MSMGDDDRAYHHQMSVIVTAANANLPGHGKGPLVSVSSELLTKESHLMYDFERYVARNPSRFNQKVLDNLRIHHTYTRSSLDTLVNEFLAEITPACANRDAPSMLPSKMGSLPNDSLTGSVLSIDIGGSTLRGSMVDLEKMTVTDSVQHLIPDTVKNYSGSDFFDWIVERIMPLVKDCTATIIPIGLSWSFPIFQPHISSGLIQTMGKGYGVADEIINQDLKELFETHFASHGKTVEVGAILNDSVASLVAANYISNAPLCLILGTGINVSALIPKDQLKKTEQDQDKYIVNCEASLFGQCVSKTCWDLELDQALERPGFQPLESLSSGRYLGEICRLILRDLSKTGFLSRPDVGPYELTTAEVADLETADSGELDYVQDIILATSDRSAALASAFITAIYKLTGSDCESPSIAYDGTMVQKYPNFRPRMQQRLREQGLNVTFVAVEEGTVYGSAIACASQLSQ
notes: N-terminal GST fusion (pGEX-4T-2, plasmid pCL151), full-length ORF, expressed in E. coli BL21(DE3), glutathione-Sepharose eluted, tag not reported cut
A word on the Km: it is the concentration of substrate that gives half-maximal velocity. As for B1, the Km turned out to be 1000 µM.
